According to PMC2172650 (The Journal of Cell Biology, 2003):

How the values were obtained:
[1] = target: T1, h-β2 appendage (residues 700–937), 6xHis (human, UniProt P63010 700-937); assay: ITC
T1 sequence (looked up): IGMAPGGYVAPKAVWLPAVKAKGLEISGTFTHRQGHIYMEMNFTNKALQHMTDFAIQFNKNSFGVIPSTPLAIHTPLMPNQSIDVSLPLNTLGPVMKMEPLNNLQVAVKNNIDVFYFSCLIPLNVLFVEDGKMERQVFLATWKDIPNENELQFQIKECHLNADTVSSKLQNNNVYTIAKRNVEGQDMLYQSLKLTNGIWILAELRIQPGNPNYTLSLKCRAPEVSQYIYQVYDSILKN

[2] = target: T2, h-γ appendage (residues 704–822), 6xHis (human, UniProt O43747 704-822); assay: ITC
T2 sequence (looked up): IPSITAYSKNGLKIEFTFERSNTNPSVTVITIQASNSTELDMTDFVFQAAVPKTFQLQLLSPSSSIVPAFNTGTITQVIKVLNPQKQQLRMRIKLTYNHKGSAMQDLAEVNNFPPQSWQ

B1: epsinR N3 construct (291–426), GST cleaved (domain or fragment, human, UniProt Q14677 291-426, looked up)
chain: AHYTGDKASPDQNASTHTPQSSVKTSVPSSKSSGDLVDLFDGTSQSTGGSADLFGGFADFGSAAASGSFPSQVTATSGNGDFGDWSAFNQAPSGPVASSGEFFGSASQPAVELVSGSQSALGPPPAASNSSDLFDL
[1]
  stoichiometry N: 2 appendage domains per epsinR N3
[2]
  stoichiometry N: 2 appendage domains per epsinR N3
